Assay results from PMC11401937 (Nature Communications, 2024).

Biological target: the molecule itself
Experiment: cryo-EM structure

B1: Human Best1 protein purified for cryo-EM (GABA-bound pentamer) (natural protein)
chain: TITYTSQVANARLGSFSRLLLCWRGSIYKLLYGEFLIFLLCYYIIRFIYRLALTEEQQLMFEKLTLYCDSYIQLIPISFVLGFYVTLVVTRWWNQYENLPWPDRLMSLVSGFVEGKDEQGRLLRRTLIRYANLGNVLILRSVSTAVYKRFPSAQHLVQAGFMTPAEHKQLEKLSLPHNMFWVPWVWFANLSMKAWLGGRIRDPILLQSLLNEMNTLRTQCGHLYAYDWISIPLVYTQVVTVAVYSFFLTCLVGRQFLNPAKAYPGHELDLVVPVFTFLQFFFYVGWLKVAEQLINPFGEDDDDFETNWIVDRNLQVSLLAVDEMHQDLPRMEPDMYWNKPEPQPPYTAASAQFRRASFMGSTFNISLNKEEMEFQPNQEDEEDAHAGIIGRFLGLQSHDHHPPRANSRTKLLWPKRESLLHEGLPKNHKAAKQNVRGQEDNKAWKLKAVDAFKSAPLYQRPGYYSAPQTPLSPTPMFFPLEPSAPSKLHSVTGIDTKDKSLKTVSSGAKKSFELLSESDGALMEHPEVSQVRRKTVEFNLTDMPEIPENHLKEPLEQSPTNIHTTLKDHMDPYWALENRDEAHS
  stoichiometry N: 5
